Measurements from US20260167699A1 (Chugai, published 2026).

B1: GpH7-A5/GpH7-B3 variant P329_09D/GpL16-k0 (antibody, human IgG1, kappa)
heavy 1: not shown
heavy 2: not shown
light: DIVMTQSPLSLPVTPGEPASISCQASESLVHSNRNTYLHWYLQKPGQSPQLLIYKVSNRFSGVPDRFSGSGSGTDFTLKISRVEAEDVGVYYCSQNTHVPPTFGQGTKVEIERTVAAPSVFIFPPSDEQLKSGTASVVCLLNNFYPREAKVQWKVDNALQSGNSQESVTEQDSKDSTYSLSSTLTLSKADYEKHKVYACEVTHQGLSSPVTKSFNRGEC
notes: He Ab; copies: 1 + 1 + 2
B2: GpH7-A5/GpH7-B3 variant P329_10E/GpL16-k0 (antibody, human IgG1, kappa)
heavy 1: not shown
heavy 2: not shown
light: B1 light
notes: He Ab; copies: 1 + 1 + 2
B3: GpH7-A5/GpH7-B3 variant P331_02A/GpL16-k0 (antibody, human IgG1, kappa)
heavy 1: not shown
heavy 2: not shown
light: B1 light
notes: He Ab; copies: 1 + 1 + 2
B4: GpH7-A5/GpH7-B3 variant P331_03V/GpL16-k0 (antibody, human IgG1, kappa)
heavy 1: not shown
heavy 2: not shown
light: B1 light
notes: He Ab; copies: 1 + 1 + 2
B5: GpH7-A5/GpH7-B3 variant P331_04F/GpL16-k0 (antibody, human IgG1, kappa)
heavy 1: not shown
heavy 2: not shown
light: B1 light
notes: He Ab; copies: 1 + 1 + 2
B6: GpH7-A5/GpH7-B3 variant P331_06M/GpL16-k0 (antibody, human IgG1, kappa)
heavy 1: not shown
heavy 2: not shown
light: B1 light
notes: He Ab; copies: 1 + 1 + 2
B7: GpH7-A5/GpH7-B3 variant P331_07I/GpL16-k0 (antibody, human IgG1, kappa)
heavy 1: not shown
heavy 2: not shown
light: B1 light
notes: He Ab; copies: 1 + 1 + 2
B8: GpH7-A5/GpH7-B3 variant P331_08L/GpL16-k0 (antibody, human IgG1, kappa)
heavy 1: not shown
heavy 2: not shown
light: B1 light
notes: He Ab; copies: 1 + 1 + 2
B9: GpH7-A5/GpH7-B3 variant P331_09D/GpL16-k0 (antibody, human IgG1, kappa)
heavy 1: not shown
heavy 2: not shown
light: B1 light
notes: He Ab; copies: 1 + 1 + 2
B10: GpH7-A5/GpH7-B3 variant P331_10E/GpL16-k0 (antibody, human IgG1, kappa)
heavy 1: not shown
heavy 2: not shown
light: B1 light
notes: He Ab; copies: 1 + 1 + 2
B11: GpH7-A5/GpH7-B3 variant P331_11K/GpL16-k0 (antibody, human IgG1, kappa)
heavy 1: not shown
heavy 2: not shown
light: B1 light
notes: He Ab; copies: 1 + 1 + 2
B12: GpH7-A5/GpH7-B3 variant P331_13S/GpL16-k0 (antibody, human IgG1, kappa)
heavy 1: not shown
heavy 2: not shown
light: B1 light
notes: He Ab; copies: 1 + 1 + 2
B13: GpH7-A5/GpH7-B3 variant P331_14T/GpL16-k0 (antibody, human IgG1, kappa)
heavy 1: not shown
heavy 2: not shown
light: B1 light
notes: He Ab; copies: 1 + 1 + 2
B14: GpH7-A5/GpH7-B3 variant P331_15Y/GpL16-k0 (antibody, human IgG1, kappa)
heavy 1: not shown
heavy 2: not shown
light: B1 light
notes: He Ab; copies: 1 + 1 + 2
B15: GpH7-A5/GpH7-B3 variant P331_16H/GpL16-k0 (antibody, human IgG1, kappa)
heavy 1: not shown
heavy 2: not shown
light: B1 light
notes: He Ab; copies: 1 + 1 + 2
B16: GpH7-A5/GpH7-B3 variant P331_18N/GpL16-k0 (antibody, human IgG1, kappa)
heavy 1: not shown
heavy 2: not shown
light: B1 light
notes: He Ab; copies: 1 + 1 + 2
B17: GpH7-A5/GpH7-B3 variant P331_19Q/GpL16-k0 (antibody, human IgG1, kappa)
heavy 1: not shown
heavy 2: not shown
light: B1 light
notes: He Ab; copies: 1 + 1 + 2
B18: GpH7-A5/GpH7-B3 variant P331_20W/GpL16-k0 (antibody, human IgG1, kappa)
heavy 1: not shown
heavy 2: not shown
light: B1 light
notes: He Ab; copies: 1 + 1 + 2
B19: GpH7-A5/GpH7-B3 variant Q295_01G/GpL16-k0 (antibody, human IgG1, kappa)
heavy 1: not shown
heavy 2: not shown
light: B1 light
notes: He Ab; copies: 1 + 1 + 2
B20: GpH7-A5/GpH7-B3 variant Q295_02A/GpL16-k0 (antibody, human IgG1, kappa)
heavy 1: not shown
heavy 2: not shown
light: B1 light
notes: He Ab; copies: 1 + 1 + 2
B21: GpH7-A5/GpH7-B3 variant Q295_03V/GpL16-k0 (antibody, human IgG1, kappa)
heavy 1: not shown
heavy 2: not shown
light: B1 light
notes: He Ab; copies: 1 + 1 + 2
B22: GpH7-A5/GpH7-B3 variant Q295_04F/GpL16-k0 (antibody, human IgG1, kappa)
heavy 1: not shown
heavy 2: not shown
light: B1 light
notes: He Ab; copies: 1 + 1 + 2
B23: GpH7-A5/GpH7-B3 variant Q295_05P/GpL16-k0 (antibody, human IgG1, kappa)
heavy 1: not shown
heavy 2: not shown
light: B1 light
notes: He Ab; copies: 1 + 1 + 2
B24: GpH7-A5/GpH7-B3 variant Q295_06M/GpL16-k0 (antibody, human IgG1, kappa)
heavy 1: not shown
heavy 2: not shown
light: B1 light
notes: He Ab; copies: 1 + 1 + 2
B25: GpH7-A5/GpH7-B3 variant Q295_07I/GpL16-k0 (antibody, human IgG1, kappa)
heavy 1: not shown
heavy 2: not shown
light: B1 light
notes: He Ab; copies: 1 + 1 + 2
B26: GpH7-A5/GpH7-B3 variant Q295_08L/GpL16-k0 (antibody, human IgG1, kappa)
heavy 1: not shown
heavy 2: not shown
light: B1 light
notes: He Ab; copies: 1 + 1 + 2
B27: GpH7-A5/GpH7-B3 variant Q295_09D/GpL16-k0 (antibody, human IgG1, kappa)
heavy 1: not shown
heavy 2: not shown
light: B1 light
notes: He Ab; copies: 1 + 1 + 2
B28: GpH7-A5/GpH7-B3 variant Q295_10E/GpL16-k0 (antibody, human IgG1, kappa)
heavy 1: not shown
heavy 2: not shown
light: B1 light
notes: He Ab; copies: 1 + 1 + 2
B29: GpH7-A5/GpH7-B3 variant Q295_11K/GpL16-k0 (antibody, human IgG1, kappa)
heavy 1: not shown
heavy 2: not shown
light: B1 light
notes: He Ab; copies: 1 + 1 + 2
B30: GpH7-A5/GpH7-B3 variant Q295_12R/GpL16-k0 (antibody, human IgG1, kappa)
heavy 1: not shown
heavy 2: not shown
light: B1 light
notes: He Ab; copies: 1 + 1 + 2
B31: GpH7-A5/GpH7-B3 variant Q295_13S/GpL16-k0 (antibody, human IgG1, kappa)
heavy 1: not shown
heavy 2: not shown
light: B1 light
notes: He Ab; copies: 1 + 1 + 2

Biological target: T1, FcγRIIIa extracellular domain, C-terminal His tag (human, UniProt P08637 17-208)
T1 construct: extracellular domain; also called 3a
T1 sequence (P08637 other isoform, or with tags, fused parts or gaps): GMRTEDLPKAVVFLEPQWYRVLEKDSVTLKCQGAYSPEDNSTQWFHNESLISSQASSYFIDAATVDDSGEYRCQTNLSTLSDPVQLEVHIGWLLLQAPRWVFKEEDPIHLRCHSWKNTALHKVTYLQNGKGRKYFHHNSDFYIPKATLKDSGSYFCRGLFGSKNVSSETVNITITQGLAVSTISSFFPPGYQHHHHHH
Assay: SPR, binding activity relative to GpH7-A5/GpH7-B3/GpL16-k0 (=100)

Binder | He/Con 3a [%]
B1 | 52.5
B2 | 52.7
B3 | 82.5
B4 | 66.9
B5 | 70.7
B6 | 68.4
B7 | 60.4
B8 | 66
B9 | 71.6
B10 | 68.7
B11 | 61.8
B12 | 80.9
B13 | 67.8
B14 | 74.9
B15 | 73.4
B16 | 67.1

Binder | He/Con 3a [%]
B17 | 73.9
B18 | 71.9
B19 | 76.6
B20 | 111
B21 | 86.2
B22 | 75.1
B23 | 74.4
B24 | 100
B25 | 101
B26 | 120
B27 | 85.6
B28 | 105
B29 | 81.8
B30 | 73.2
B31 | 90.4
